T1: canine PD-1 (on transfected CHO cells) (canine)
T1 construct: also called dPD-1
T1 chain: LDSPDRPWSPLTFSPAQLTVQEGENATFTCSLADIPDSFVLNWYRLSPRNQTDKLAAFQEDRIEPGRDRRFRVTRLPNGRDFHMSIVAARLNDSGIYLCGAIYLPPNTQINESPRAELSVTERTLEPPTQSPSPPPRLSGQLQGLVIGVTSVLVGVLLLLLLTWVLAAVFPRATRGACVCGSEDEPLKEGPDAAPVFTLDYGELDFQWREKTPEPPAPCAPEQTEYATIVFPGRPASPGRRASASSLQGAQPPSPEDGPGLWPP

T2: feline PD-1 (on transfected CHO cells) (feline)
T2 construct: Expressed from a vector that also expresses EGFP; also called cPD-1
T2 chain: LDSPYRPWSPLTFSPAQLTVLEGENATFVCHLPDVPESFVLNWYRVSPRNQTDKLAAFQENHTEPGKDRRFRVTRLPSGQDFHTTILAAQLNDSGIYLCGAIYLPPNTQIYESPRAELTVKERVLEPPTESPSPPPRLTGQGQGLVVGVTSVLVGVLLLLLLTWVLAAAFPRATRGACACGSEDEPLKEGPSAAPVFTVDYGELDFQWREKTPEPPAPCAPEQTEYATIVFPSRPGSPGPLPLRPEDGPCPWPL


Key:
[1] = biological target: T1, canine PD-1 (on transfected CHO cells); test: flow cytometry (MFI) on CHO cells with canine PD-1
Description: 25 μl CHO cells were added to each well.
30 μl of PBS was then added.

[2] = biological target: T1, canine PD-1 (on transfected CHO cells); test: flow cytometry blocking assay on CHO cells transiently transfected with canine PD-1; antibody at 0.05 µg/mL; blocked ligand biotin-labeled dPD-L1 (5 µg/ml), detected with Streptavidin-PE
Description: (§1) The anti-dPD-1 chimeric antibodies were collected from mouse ascites fluid and purified by chromatography. 25 μl CHO cells transiently transfected with canine PD-1 were added to each well in a plate. The purified antibodies were titrated to the desired final concentrations, and were added to each well at 25 μl per well at 4° C. and incubated for 30 minutes.
(§2) After being washed with phosphate-buffered saline (PBS) twice (1200 rpm, 5 minutes), 50 μl of PE-labeled Streptavidin (Streptavidin-PE) at 1:100 dilution was added into each well, and incubated for 30 minutes at 4° C., followed by PBS wash (1200 rpm, 5 minutes). 20 μl of PBS was added. The signals for PE was detected by flow cytometry (Intellicyt).

[3] = biological target: T1, canine PD-1 (on transfected CHO cells); test: flow cytometry blocking assay on CHO cells transiently transfected with canine PD-1; antibody at 5 µg/mL; blocked ligand biotin-labeled dPD-L1 (5 µg/ml), detected with Streptavidin-PE
Description: as §1, §2

[4] = biological target: T1, canine PD-1 (on transfected CHO cells); test: flow cytometry blocking assay on CHO cells transiently transfected with canine PD-1; antibody at 0.005 µg/mL; blocked ligand biotin-labeled dPD-L1 (5 µg/ml), detected with Streptavidin-PE
Description: as §1, §2

[5] = biological target: T1, canine PD-1 (on transfected CHO cells); test: flow cytometry blocking assay on CHO cells transiently transfected with canine PD-1; antibody at 0.5 µg/mL; blocked ligand biotin-labeled dPD-L1 (5 µg/ml), detected with Streptavidin-PE
Description: as §1, §2

[6] = biological target: T2, feline PD-1 (on transfected CHO cells); test: flow cytometry (MFI) on CHO cells with feline PD-1 and EGFP
Description: In FIG. 9, the CHO cells were transfected with an expression vector that expresses feline PD-1 and EGFP. 25 μl purified anti-dPD-1 chimeric antibodies with different concentrations were added to each well. After being washed with PBS (1200 rmp, 5 min) twice, 50 μl of Alexa Fluor 647 labeled anti-dog IgG Fc antibody (anti-dIgG Fc-647) was added into each well at 1:500 dilution, followed by incubating at 4° C. for 30 minutes, and then PBS wash (1200 rmp, 5 min). 30 μl of PBS was then added. […] EC50 were also determined from the data.

[7] = biological target: T3, human PD-1 (on transfected CHO cells) (human, UniProt Q15116 25-288); test: flow cytometry on CHO-hPD-1 cells; Anti-dog-IgG Fc-FITC (1:100)
T3 construct: also called hPD-1
Description: After being washed with PBS (1200 rmp, 5 min) twice, FITC labeled anti-dog IgG Fc antibody (anti-dIgG Fc-FITC) was added into each well 1:100 dilution, followed by incubating at 4° C. for 30 minutes, and then PBS wash (1200 rmp, 5 min). The signals for FITC were determined by flow cytometry.

T3 sequence (Q15116 25-288 limits assumed): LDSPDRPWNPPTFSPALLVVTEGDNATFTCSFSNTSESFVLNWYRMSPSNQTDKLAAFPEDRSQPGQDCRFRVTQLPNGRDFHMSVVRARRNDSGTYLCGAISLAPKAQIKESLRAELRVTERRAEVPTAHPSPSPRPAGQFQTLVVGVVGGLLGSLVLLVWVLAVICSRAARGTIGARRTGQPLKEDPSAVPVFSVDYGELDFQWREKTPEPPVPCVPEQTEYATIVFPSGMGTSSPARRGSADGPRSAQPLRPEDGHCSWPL

EC50 [1] | percent of cells in the dPD-L1-positive (PE) gate [2] | percent of cells in the dPD-L1-positive (PE) gate [3] | percent of cells in the dPD-L1-positive (PE) gate [4] | percent of cells in the dPD-L1-positive (PE) gate [5] | EC50 [6] | binding result [7] | Binder
4.81 nM | 27.1% | 3.37% | 34.1% | 1.7% | 1.53 nM |  | 4A7-mHvKv-dIgG4 (antibody, V domains shown, also called 4A7-mHvKv-IgG4; 4A7-mHvKv-dlgG4) VH: EVQLVESGGDLVKPGGSLKLSCVASGFPFSNFGMSWVRQTPDKRLEWVATISSGSSYSYYSDSVKGRFTISRDNAKNTLFLQMNSLKSEDTAIFYCARGESRFAYWGQGTLVTVSA VL: DVVITQDELSNPVTSGESVSISCRSNKSLLYEDGQTYLNWFLQRPGQSPQLLIYLMSTRASGVSDRFSGSGSGTDFTLEISEVRAEDVGVYYCQQLIEYPLTFGAGTKLELKR
 | 18.8% | 4.38% | 39.2% | 0.161% | 7.29 nM | no binding (tested: 10 µg/ml) | 1D8-mHvKv-dIgG4 (antibody, V domains shown, also called 1D8-mHvKv-IgG4; 1D8-mHvKv-dlgG4) VH: EVQLVESGGDLVKPGGSLKLSCAASGFTFNNFGMSWVRQNPDKRLEWVATLSSGSSYTYYSDSVKGRFTISRDNAKNTLYLQMNSLKSEDTAMYYCTRGESRFAYWGQGTLVTVSA VL: GVVITQDELSNPVTSGESVSISCRSSKSLLYKDGKTYLNWFLQRPGQSPQLLIYLMSTRASGVSDRFSGSGSGTDFTLEISRVKAEDVGVYYCQQLIEYPLTFGAGTKLELKR
 | 47% | 0.504% | 45.1% | 4.4% |  |  | 1B9-mHvKv-dIgG4 (antibody, V domains shown, also called 1B9-mHvKv-IgG4; 1B9-mHvKv-dlgG4) VH: QVQLQQPGAELVRPGASVKLSCKASGYTFTSFWMNWVKLRPEQGLEWIGRVDPYDSETHYNQKFKDKAILTVDKSSSTAYMQLSSLTSEDSAVYYCATQFGFSWLAYWGQGTLVTVSA VL: not shown
